Data reported in patent US20120107952A1.

Legend:
[1] = target: Bovine-biotinamidocaproyl-labeled Albumin (biotinylated-BSA) (bovine) (UniProt P02769); test: MA-SPCL, 33 nM Qdots-streptavidin on biotinylated-BSA coated gold disk, emission at 217 degrees; similar after 30 min at room temperature
[2] = target: Bovine-biotinamidocaproyl-labeled Albumin (biotinylated-BSA) (bovine) (UniProt P02769); test: MA-SPCL, 33 nM Qdots-streptavidin on biotinylated-BSA coated gold disk, in serum, 655 nm, 217 degrees
[3] = target: Bovine-biotinamidocaproyl-labeled Albumin (biotinylated-BSA) (bovine) (UniProt P02769); test: MA-SPCL, 33 nM Qdots-streptavidin on biotinylated-BSA coated gold disk, in whole blood, 655 nm, 217 degrees

UniProt P02769, sequence (P02769 25-607 limits assumed): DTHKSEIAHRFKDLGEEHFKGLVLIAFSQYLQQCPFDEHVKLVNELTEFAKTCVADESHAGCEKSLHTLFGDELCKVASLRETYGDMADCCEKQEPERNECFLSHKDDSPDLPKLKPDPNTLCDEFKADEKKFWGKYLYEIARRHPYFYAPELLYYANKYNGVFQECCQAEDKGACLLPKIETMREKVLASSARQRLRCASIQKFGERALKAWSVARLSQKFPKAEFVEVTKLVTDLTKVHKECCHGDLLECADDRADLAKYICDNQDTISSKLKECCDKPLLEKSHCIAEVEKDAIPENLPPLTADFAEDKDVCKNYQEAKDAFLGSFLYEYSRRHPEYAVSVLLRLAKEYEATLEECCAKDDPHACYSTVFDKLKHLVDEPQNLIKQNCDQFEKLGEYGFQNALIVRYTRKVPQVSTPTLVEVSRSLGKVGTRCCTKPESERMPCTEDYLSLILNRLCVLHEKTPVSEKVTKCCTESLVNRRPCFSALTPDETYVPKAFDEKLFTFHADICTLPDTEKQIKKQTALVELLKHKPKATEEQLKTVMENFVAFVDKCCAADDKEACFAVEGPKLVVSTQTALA

final luminescence intensity [1]: 150 au | peak luminescence intensity in serum relative to buffer [2]: 75% | peak luminescence intensity in whole blood relative to buffer [3]: 20%
Substance: Quantum dot 655-labeled streptavidin (Qdots-streptavidin) (from UniProt P22629 37-163)
